Patent publication US20240124560A1 (Scripps Research, published 2024)

Assays:
HIV-1 HxB2 Env [1] = molecular target: T1, HIV-1 HxB2 Env (HIV-1 HxB2, UniProt P04578 33-856); assay: cell-based or functional assay
HIV-1 Du156.12 Env [2] = molecular target: HIV-1 Du156.12 Env (HIV-1 Du156.12); assay: cell-based or functional assay
HIV-1 Du156.12 Env [3] = molecular target: HIV-1 Du156.12 Env (HIV-1 Du156.12); assay: cell-based or functional assay; remark: listed apart in the source
HIV-2 C3 chimera Env = HIV-2 C3 chimera Env (HIV-2 (HIV-1 MPER) chimera); assay: cell-based or functional assay
HIV-2 C4 chimera Env = HIV-2 C4 chimera Env (HIV-2 (HIV-1 MPER) chimera); assay: cell-based or functional assay
[4] = molecular target: HIV-2 Env (parental virus of the chimeras) (HIV-2); assay: cell-based or functional assay
HIV-1 HxB2 Env [5] = molecular target: T1, HIV-1 HxB2 Env; assay: cell-based or functional assay; remark: listed apart in the source
HIV-1 Du156.12 Env [6] = molecular target: HIV-1 Du156.12 Env (HIV-1 Du156.12); assay: cell-based or functional assay; remark: listed apart in the source
HIV-1 HxB2 Env [7] = molecular target: T1, HIV-1 HxB2 Env; assay: BN-PAGE mobility shift of HxB2 Env with Fab, relative shift
HIV-2 C1 chimera Env = HIV-2 C1 chimera Env (HIV-2 (HIV-1 MPER) chimera); assay: cell-based or functional assay

B1: H4K3_SFS28EPE (antibody, V domains shown)
VH: KVQLVQSGAELKKPWSSVRVSCKASGGEPESYAFNWVRQAPGQRLEWLGGIVPLVSSTNYAQRFRGRVTISADRSTSTVYLEMTGLTSADTAVYFCAREGEGWFGRPLRAFEFWGQGTLVTVST
VL: EIVLTQSPGTFALSPGERATLSCRASQSVSGGALAWYQQKAGQAPRLLIYDTSGRATGVPGRFSGSGSETDFSLTISRLEPEDFAVYYCQQYGTSQSTFGQGTRLETR
Fold Increase (neutralization IC50 over H4K3), HxB2 (HIV-1 HxB2 Env [1]): 16.4 fold
IC50, neutralization of HxB2 pseudovirus (HIV-1 HxB2 Env [1]): 1.62 µg/mL
Fold Increase (neutralization IC50 over H4K3), Du156.12 (HIV-1 Du156.12 Env [2]): 26.3 fold
IC50, neutralization of Du156.12 pseudovirus (HIV-1 Du156.12 Env [2]): 2.89 µg/mL

B2: H4K3_RS73PE (antibody, V domains shown)
VH: KVQLVQSGAELKKPWSSVRVSCKASGGSFSSYAFNWVRQAPGQRLEWLGGIVPLVSSTNYAQRFRGRVTISADPETSTVYLEMTGLTSADTAVYFCAREGEGWFGRPLRAFEFWGQGTLVTVST
VL: EIVLTQSPGTFALSPGERATLSCRASQSVSGGALAWYQQKAGQAPRLLIYDTSGRATGVPGRFSGSGSETDFSLTISRLEPEDFAVYYCQQYGTSQSTFGQGTRLETR
Fold Increase (neutralization IC50 over H4K3), HxB2 (HIV-1 HxB2 Env [1]): 3 fold
IC50, neutralization of HxB2 pseudovirus (HIV-1 HxB2 Env [1]): 0.299 µg/mL
Fold Increase (neutralization IC50 over H4K3), Du156.12 (HIV-1 Du156.12 Env [2]): 7.4 fold
IC50, neutralization of Du156.12 pseudovirus (HIV-1 Du156.12 Env [2]): 0.814 µg/mL

B3: H4K3_5M (antibody, V domains shown)
VH: KVQLVQSGAELKKPWSSVRVSCKASGGEPESYAFNWVRQAPGQRLEWLGGIVPLVSSTNYAQRFRGRVTISADPETSTVYLEMTGLTSADTAVYFCAREGEGWFGRPLRAFEFWGQGTLVTVST
VL: EIVLTQSPGTFALSPGERATLSCRASQSVSGGALAWYQQKAGQAPRLLIYDTSGRATGVPGRFSGSGSETDFSLTISRLEPEDFAVYYCQQYGTSQSTFGQGTRLETR
Fold Increase (neutralization IC50 over H4K3), HxB2 (HIV-1 HxB2 Env [1]): 37.7 fold
IC50, neutralization of HxB2 pseudovirus (HIV-1 HxB2 Env [1]): 3.72 µg/mL
Fold Increase (neutralization IC50 over H4K3), Du156.12 (HIV-1 Du156.12 Env [2]): 84.5 fold
IC50, neutralization of Du156.12 pseudovirus (HIV-1 Du156.12 Env [2]): 9.31 µg/mL

B4: PGZL1.H4K3 (antibody, V domains shown)
VH: KVQLVQSGAELKKPWSSVRVSCKASGGSFSSYAFNWVRQAPGQRLEWLGGIVPLVSSTNYAQRFRGRVTISADRSTSTVYLEMTGLTSADTAVYFCAREGEGWFGRPLRAFEFWGQGTLVTVST
VL: EIVLTQSPGTFALSPGERATLSCRASQSVSGGALAWYQQKAGQAPRLLIYGTSGRATGVPGRFSGSGSETDFSLTISRLEPEDFAVYYCQQYGTSQSTFGQGTRLETR
IC50 (µg/ml), neutralization of HIV-1 Du156.12 (HIV-1 Du156.12 Env [3]): 0.27 µg/mL
IC50 (µg/ml), neutralization of chimeric virus (HIV-2 C3 chimera Env): > 10 µg/mL
IC50 (µg/ml), neutralization of chimeric virus (HIV-2 C4 chimera Env): 1.17 µg/mL
IC50 (µg/ml), neutralization of HIV-2 [4]: > 10 µg/mL
IC50, neutralization of HxB2 pseudovirus (HIV-1 HxB2 Env [1]): 0.099 µg/mL
IC50, neutralization of Du156.12 pseudovirus (HIV-1 Du156.12 Env [2]): 0.11 µg/mL

B5: PGZL1_gVmDmJ F100A (antibody, V domains shown)
V domain 1: QVQLVQSGAEVKKPGSSVKVSCKASGGTFSSYAISWVRQAPGQGLEWMGGIIPIFGTANYAQKFQGRVTITADKSTSTAYMELSSLRSEDTAVYYCAREGEGWAGKPLRAFEFWGQGTVITVSS
V domain 2: not shown
decrease in neutralization against the parent antibody (HIV-1 HxB2 Env [5]): > 10 fold
decrease in neutralization against the parent antibody (HIV-1 Du156.12 Env [6]): > 10 fold

B6: PGZL1_gVmDmJ_W99A (antibody, V domains shown)
V domain 1: QVQLVQSGAEVKKPGSSVKVSCKASGGTFSSYAISWVRQAPGQGLEWMGGIIPIFGTANYAQKFQGRVTITADKSTSTAYMELSSLRSEDTAVYYCAREGEGAFGKPLRAFEFWGQGTVITVSS
V domain 2: not shown
decrease in neutralization against the parent antibody (HIV-1 HxB2 Env [5]): > 10 fold
decrease in neutralization against the parent antibody (HIV-1 Du156.12 Env [6]): > 10 fold

B7: PGZL1_gVgDgJ Fab (Fab, V domains shown)
VH: QVQLVQSGAEVKKPGSSVKVSCKASGGTFSSYAISWVRQAPGQGLEWMGGIIPIFGTANYAQKFQGRVTITADKSTSTAYMELSSLRSEDTAVYYCAREGEGWFGEPLRAFDVWGQGTVITVSS
VL: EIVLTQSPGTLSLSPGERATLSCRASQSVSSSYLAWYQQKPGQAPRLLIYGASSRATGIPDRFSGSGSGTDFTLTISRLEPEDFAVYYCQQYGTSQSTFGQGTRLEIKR
binding result (HIV-1 HxB2 Env [7]): binds

B8: PGZL1 (antibody, V domains shown)
VH: EVQLVQSGGEVKRPGSSVTVSCKATGGTFSTLAFNWVRQAPGQGPEWMGGIVPLFSIVNYGQKFQGRLTIRADKSTTTVFLDLSGLTSADTATYYCAREGEGWFGKPLRAFEFWGQGTVITVSS
VL: DVVMTQSPGTLSLSPGERATLSCRASQSVSGGALAWYQQKPGQAPRLLIYDTSSRPTGVPGRFSGSGSGTDFSLTISRLEPEDFAVYYCQQYGTSQSTFGQGTRLEIK
IC50 (µg/ml), neutralization of HIV-1 Du156.12 (HIV-1 Du156.12 Env [3]): 0.623 µg/mL
IC50 (µg/ml), neutralization of chimeric virus (HIV-2 C1 chimera Env): 0.98 µg/mL
IC50 (µg/ml), neutralization of chimeric virus (HIV-2 C3 chimera Env): > 10 µg/mL
IC50 (µg/ml), neutralization of chimeric virus (HIV-2 C4 chimera Env): 2.38 µg/mL
IC50 (µg/ml), neutralization of HIV-2 [4]: > 10 µg/mL

B9: PGZL1 Fab (Fab, V domains shown)
VH: EVQLVQSGGEVKRPGSSVTVSCKATGGTFSTLAFNWVRQAPGQGPEWMGGIVPLFSIVNYGQKFQGRLTIRADKSTTTVFLDLSGLTSADTATYYCAREGEGWFGKPLRAFEFWGQGTVITVSS
VL: DVVMTQSPGTLSLSPGERATLSCRASQSVSGGALAWYQQKPGQAPRLLIYDTSSRPTGVPGRFSGSGSGTDFSLTISRLEPEDFAVYYCQQYGTSQSTFGQGTRLEIK
notes: also called Fab PGZL1
binding result (HIV-1 HxB2 Env [7]): binds

B10: PGZL1_W99A (antibody, V domains shown)
VH: QVQLVQSGGEVKRPGSSVTVSCKATGGTFSTLAFNWVRQAPGQGPEWMGGIVPLFSIVNYGQKFQGRLTIRADKSTTTVFLDLSGLTSADTATYYCAREGEGAFGKPLRAFEFWGQGTVITVSS
VL: DVVMTQSPGTLSLSPGERATLSCRASQSVSGGALAWYQQKPGQAPRLLIYDTSSRPTGVPGRFSGSGSGTDFSLTISRLEPEDFAVYYCQQYGTSQSTFGQGTRLEIK
decrease in neutralization against the parent antibody (HIV-1 HxB2 Env [5]): > 10 fold
decrease in neutralization against the parent antibody (HIV-1 Du156.12 Env [6]): > 10 fold

B11: PGZL1_F100A (antibody, V domains shown)
VH: QVQLVQSGGEVKRPGSSVTVSCKATGGTFSTLAFNWVRQAPGQGPEWMGGIVPLFSIVNYGQKFQGRLTIRADKSTTTVFLDLSGLTSADTATYYCAREGEGWAGKPLRAFEFWGQGTVITVSS
VL: DVVMTQSPGTLSLSPGERATLSCRASQSVSGGALAWYQQKPGQAPRLLIYDTSSRPTGVPGRFSGSGSGTDFSLTISRLEPEDFAVYYCQQYGTSQSTFGQGTRLEIK
decrease in neutralization against the parent antibody (HIV-1 HxB2 Env [5]): > 10 fold
decrease in neutralization against the parent antibody (HIV-1 Du156.12 Env [6]): > 10 fold
